Data taken from paper PMC9872604, “Targeting Multidrug-Recalcitrant Pseudomonas aeruginosa Biofilms: Combined-Enzyme Treatment Enhances Antibiotic Efficacy” (Antimicrobial Agents and Chemotherapy, 2023).

How the values were obtained:
purified protein [1] = substrate: CCCC(=O)N[C@H]1CCOC1=O; test: purified protein; format: biochemical, Ochrobactrum sp. T63; conditions: 50 mM sodium phosphate pH 6.8, 37 °C, 10 min, 5% methanol substrate
purified protein [2] = substrate: CCCCCCCCCC(=O)CC(=O)N[C@H]1CCOC1=O; test: purified protein; format: biochemical, Ochrobactrum sp. T63; conditions: 50 mM sodium phosphate pH 6.8, 37 °C, 10 min, 5% methanol substrate

B1: AidH (Ochrobactrum sp. T63) (protein)
chain: MTINYHELETSHGRIAVRESEGEGAPLLMIHGNSSSGAIFAPQLEGEIGKKWRVIAPDLPGHGKSTDAIDPDRSYSMEGYADAMTEVMQQLGIADAVVFGWSLGGHIGIEMIARYPEMRGLMITGTPPVAREEVGQGFKSGPDMALAGQEIFSERDVESYARSTCGEPFEASLLDIVARTDGRARRIMFEKFGSGTGGNQRDIVAEAQLPIAVVNGRDEPFVELDFVSKVKFGNLWEGKTHVIDNAGHAPFREAPAEFDAYLARFIRDCTQ
notes: full aidH gene in pET28a(+) (BamHI/HindIII), His-tagged, expressed in E. coli BL21(DE3), Ni-NTA and size exclusion purified
Q: B1 was tested. Which Km (purified protein [1]) did it give?
A: 250 ± 30 µM

Q: What about the kcat (purified protein [1]) of the same protein?
A: 39.8 ± 1.3 s⁻¹

Q: And the Km (purified protein [2])?
A: 240 ± 30 µM

Q: And the kcat (purified protein [2])?
A: 29.4 ± 1.7 s⁻¹
